Key:
hIR = hIR (Homo sapiens, UniProt P06213); assay: hIR activation / insulin signaling activation; format: cell-based
[1] = known property of shortened human insulin; cited from earlier work

## Des-octapeptide (B23-30) human insulin [DOI]
hIR
  hIR activation activity compared with enzymatically synthetic DOI: same
hIR; relative to human insulin
  potency, fold weaker than human insulin: 1,000 fold
[1]
  oligomeric state: monomeric

## quadruple DOI mutant: DOI with A8 His, A9 Arg, B10 Glu, B20 Tyr; SEQ ID NO: 12 and SEQ ID NO: 3
hIR; FIG. 7
  potency for hIR activation compared with human insulin: comparable to that of human insulin

From patent publication US20220389073A1, “Novel Mini-Insulin With Extended C-Terminal A Chain” (University of Utah Research Foundation, priority 2019, published 2022)
